Reference: the supplement of paper PMC5998384

Legend:
HeLa Kyoto [1] = assay: solubility in G1/S (NP-40 vs SDS abundance) (log2 ratio); higher = more soluble; settings: cell cycle stage: G1/S
HeLa Kyoto [2] = assay: melting temperature (median over replicates), in situ; higher = more thermally stable
HeLa Kyoto [3] = assay: solubility change mitosis vs G1/S (difference of NP-40 vs SDS log2 ratios) (log2 ratio difference); higher = more soluble in mitosis
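Throughout, for melting temperature (median over replicates), in situ: HeLa Kyoto cells synchronized by double thymidine or nocodazole block, proteins quantified by TMT10plex mass spectrometry, three independent biological replicates.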
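Throughout, for solubility change mitosis vs G1/S (difference of NP-40 vs SDS log2 ratios): synchronized HeLa Kyoto cells (double thymidine block for G1/S, nocodazole release for mitosis), protein amounts in NP-40 versus SDS lysates quantified by mass spectrometry, three biological replicates.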
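Throughout, for solubility in G1/S (NP-40 vs SDS abundance): HeLa Kyoto cells arrested at G1/S by double thymidine block, proteins quantified by TMT10plex mass spectrometry in mild NP-40 versus SDS extracts, three biological replicates.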

MPVVWPTLLDLSRDECKRILRKLELEAYAGVISALRAQGDLTKEKKDLLGELSKVLSISTERHRAEVRRAVNDERLTTIAHNMSGPNSSSEWSIEGRRLVPLMPRLVPQTAFTVTANAVANAAIQHNASLPVPAETGSKEVVCYSYTSTTSTPTSTPVPSGSIATVKSPRPASPASNVVVLPSGSTVYVKSVSCSDEDEKPRKRRRTNSSSSSPVVLKEVPKAVVPVSKTITVPVSGSPKMSNIMQSIANSLPPHMSPVKITFTKPSTQTTNTTTQKVIIVTTSPSSTFVPNILSKSHNYAAVTKLVPTSVIASTTQKPPVVITASQSSLVSNSSSGSSSSTPSPIPNTVAVTAVVSSTPSVVMSTVAQGVSTSAIKMASTRLPSPKSLVSAPTQILAQFPKQHQQSPKQQLYQVQQQTQQQVAQPSPVSHQQQPQQSPLPPGIKPTIQIKQESGVKIITQQVQPSKILPKPVTATLPTSSNSPIMVVSSNGAIMTTKLVTTPTGTQATYTRPTVSPSIGRMAATPGAATYVKTTSGSIITVVPKSLATLGGKIISSNIVSGTTTKITTIPMTSKPNVIVVQKTTGKGTTIQGLPGKNVVTTLLNAGGEKTIQTVPTGAKPAILTATRPITKMIVTQPKGIGSTVQPAAKIIPTKIVYGQQGKTQVLIKPKPVTFQATVVSEQTRQLVTETLQQASRVAEAGNSSIQEGKEEPQNYTDSSSSSTESSQSSQDSQPVVHVIASRRQDWSEHEIAMETSPTIIYQDVSSESQSATSTIKALLELQQTTVKEKLESKPRQPTIDLSQMAVPIQMTQEKRHSPESPSIAVVESELVAEYITTERTDEGTEVAFPLLVSHRSQPQQPSQPQRTLLQHVAQSQTATQTSVVVKSIPASSPGAITHIMQQALSSHTAFTKHSEELGTEEGEVEEMDTLDPQTGLFYRSALTQSQSAKQQKLSQPPLEQTQLQVKTLQCFQTKQKQTIHLQADQLQHKLPQMPQLSIRHQKLTPLQQEQAQPKPDVQHTQHPMVAKDRQLPTLMAQPPQTVVQVLAVKTTQQLPKLQQAPNQPKIYVQPQTPQSQMSLPASSEKQTASQVEQPIITQGSSVTKITFEGRQPPTVTKITGGSSVPKLTSPVTSISPIQASEKTAVSDILKMSLMEAQIDTNVEHMIVDPPKKALATSMLTGEAGSLPSTHMVVAGMANSTPQQQKCRESCSSPSTVGSSLTTRKIDPPAVPATGQFMRIQNVGQKKAEESPAEIIIQAIPQYAIPCHSSSNVVVEPSGLLELNNFTSQQLDDEETAMEQDIDSSTEDGTEPSPSQSSAERS [EMSY]
solubility in G1/S (log2) (HeLa Kyoto [1]): -0.0948
melting temperature (HeLa Kyoto [2]; cell cycle stage: G1/S): 44.6 °C
melting temperature (HeLa Kyoto [2]; cell cycle stage: mitosis): 50.6 °C
solubility change mitosis (log2) (HeLa Kyoto [3]): 0.0269

MAAAATMAAAARELVLRAGTSDMEEEEGPLAGGPGLQEPLQLGELDITSDEFILDEVDVHIQANLEDELVKEALKTGVDLRHYSKQVELELQQIEQKSIRDYIQESENIASLHNQITACDAVLERMEQMLGAFQSDLSSISSEIRTLQEQSGAMNIRLRNRQAVRGKLGELVDGLVVPSALVTAILEAPVTEPRFLEQLQELDAKAAAVREQEARGTAACADVRGVLDRLRVKAVTKIREFILQKIYSFRKPMTNYQIPQTALLKYRFFYQFLLGNERATAKEIRDEYVETLSKIYLSYYRSYLGRLMKVQYEEVAEKDDLMGVEDTAKKGFFSKPSLRSRNTIFTLGTRGSVISPTELEAPILVPHTAQRGEQRYPFEALFRSQHYALLDNSCREYLFICEFFVVSGPAAHDLFHAVMGRTLSMTLKHLDSYLADCYDAIAVFLCIHIVLRFRNIAAKRDVPALDRYWEQVLALLWPRFELILEMNVQSVRSTDPQRLGGLDTRPHYITRRYAEFSSALVSINQTIPNERTMQLLGQLQVEVENFVLRVAAEFSSRKEQLVFLINNYDMMLGVLMERAADDSKEVESFQQLLNARTQEFIEELLSPPFGGLVAFVKEAEALIERGQAERLRGEEARVTQLIRGFGSSWKSSVESLSQDVMRSFTNFRNGTSIIQGALTQLIQLYHRFHRVLSQPQLRALPARAELINIHHLMVELKKHKPNF [VPS52]
solubility in G1/S (log2) (HeLa Kyoto [1]): -0.194
melting temperature (HeLa Kyoto [2]; cell cycle stage: G1/S): 51.5 °C
melting temperature (HeLa Kyoto [2]; cell cycle stage: mitosis): 50.4 °C
solubility change mitosis (log2) (HeLa Kyoto [3]): -0.138

MGPVRLGILLFLFLAVHEAWAGMLKEEDDDTERLPSKCEVCKLLSTELQAELSRTGRSREVLELGQVLDTGKRKRHVPYSVSETRLEEALENLCERILDYSVHAERKGSLRYAKGQSQTMATLKGLVQKGVKVDLGIPLELWDEPSVEVTYLKKQCETMLEEFEDIVGDWYFHHQEQPLQNFLCEGHVLPAAETACLQETWTGKEITDGEEKTEGEEEQEEEEEEEEEEGGDKMTKTGSHPKLDREDL [CNPY4]
solubility in G1/S (log2) (HeLa Kyoto [1]): 0.0586
melting temperature (HeLa Kyoto [2]; cell cycle stage: mitosis): 54.3 °C
solubility change mitosis (log2) (HeLa Kyoto [3]): 0.223

MTTSQKHRDFVAEPMGEKPVGSLAGIGEVLGKKLEERGFDKAYVVLGQFLVLKKDEDLFREWLKDTCGANAKQSRDCFGCLREWCDAFL [BANF1]
solubility in G1/S (log2) (HeLa Kyoto [1]): -1.48
melting temperature (HeLa Kyoto [2]; cell cycle stage: mitosis): 52.2 °C
solubility change mitosis (log2) (HeLa Kyoto [3]): 1.93

MTGKKSSREKRRKRSSQEAAAALAAPDIVPALASGSSGSTSGCGSAGGCGSVSCCGNANFSGSVTGGGSGGSCWGGSSVERSERRKRRSTDSSSVSGSLQQETKYILPTLEKELFLAEHSDLEEGGLDLTVSLKPVSFYISDKKEMLQQCFCIIGEKKLQKMLPDVLKNCSIEEIKKLCQEQLELLSEKKILKILEGDNGMDSDMEEEADDGSKMGSDLVSQQDICIDSASSVRENKQPEGLELKQGKGEDSDVLSINADAYDSDIEGPCNEEAAAPEAPENTVQSEAGQIDDLEKDIEKSVNEILGLAESSPNEPKAATLAVPPPEDVQPSAQQLELLELEMRARAIKALMKAGDIKKPA [CAAP1]
solubility in G1/S (log2) (HeLa Kyoto [1]): -0.326
melting temperature (HeLa Kyoto [2]; cell cycle stage: G1/S): 47.3 °C
melting temperature (HeLa Kyoto [2]; cell cycle stage: mitosis): 51.8 °C
solubility change mitosis (log2) (HeLa Kyoto [3]): 0.56

MESGDEAAIERHRVHLRSATLRDAVPATLHLLPCEVAVDGPAPVGRFFTPAIRQGPEGLEVSFRGRCLRGEEVAVPPGLVGYVMVTEEKKVSMGKPDPLRDSGTDDQEEEPLERDFDRFIGATANFSRFTLWGLETIPGPDAKVRGALTWPSLAAAIHAQVPED [RNASEH2C]
solubility in G1/S (log2) (HeLa Kyoto [1]): 0.236
melting temperature (HeLa Kyoto [2]; cell cycle stage: G1/S): 50.7 °C
melting temperature (HeLa Kyoto [2]; cell cycle stage: mitosis): 50.3 °C
solubility change mitosis (log2) (HeLa Kyoto [3]): -0.016

MAQKRPACTLKPECVQQLLVCSQEAKKSAYCPYSHFPVGAALLTQEGRIFKGCNIENACYPLGICAERTAIQKAVSEGYKDFRAIAIASDMQDDFISPCGACRQVMREFGTNWPVYMTKPDGTYIVMTVQELLPSSFGPEDLQKTQ [CDA]
solubility in G1/S (log2) (HeLa Kyoto [1]): 0.37
melting temperature (HeLa Kyoto [2]; cell cycle stage: G1/S): 54.4 °C
melting temperature (HeLa Kyoto [2]; cell cycle stage: mitosis): 54 °C
solubility change mitosis (log2) (HeLa Kyoto [3]): -0.0534

MSAHSMLCERIAIAKELIKRAESLSRSRKGGIEGGAKLCSKLKAELKFLQKVEAGKVAIKESHLQSTNLTHLRAIVESAENLEEVVSVLHVFGYTDTLGEKQTLVVDVVANGGHTWVKAIGRKAEALHNIWLGRGQYGDKSIIEQAEDFLQASHQQPVQYSNPHIIFAFYNSVSSPMAEKLKEMGISVRGDIVAVNALLDHPEELQPSESESDDEGPELLQVTRVDRENILASVAFPTEIKVDVCKRVNLDITTLITYVSALSYGGCHFIFKEKVLTEQAEQERKEQVLPQLEAFMKDKELFACESAVKDFQSILDTLGGPGERERATVLIKRINVVPDQPSERALRLVASSKINSRSLTIFGTGDTLKAITMTANSGFVRAANNQGVKFSVFIHQPRALTESKEALATPLPKDYTTDSEH [C7ORF25]
solubility in G1/S (log2) (HeLa Kyoto [1]): 0.0643
melting temperature (HeLa Kyoto [2]; cell cycle stage: G1/S): 50.1 °C
melting temperature (HeLa Kyoto [2]; cell cycle stage: mitosis): 50 °C
solubility change mitosis (log2) (HeLa Kyoto [3]): 0.0164

MASRGKTETSKLKQNLEEQLDRLMQQLQDLEECREELDTDEYEETKKETLEQLSEFNDSLKKIMSGNMTLVDELSGMQLAIQAAISQAFKTPEVIRLFAKKQPGQLRTRLAEMDRDLMVGKLERDLYTQQKVEILTALRKLGEKLTADDEAFLSANAGAILSQFEKVSTDLGSGDKILALASFEVEKTKK [LZIC]
solubility in G1/S (log2) (HeLa Kyoto [1]): 0.367
melting temperature (HeLa Kyoto [2]; cell cycle stage: G1/S): 54.1 °C
melting temperature (HeLa Kyoto [2]; cell cycle stage: mitosis): 53.2 °C
solubility change mitosis (log2) (HeLa Kyoto [3]): 0.544

MGKKHKKHKSDKHLYEEYVEKPLKLVLKVGGNEVTELSTGSSGHDSSLFEDKNDHDKHKDRKRKKRKKGEKQIPGEEKGRKRRRVKEDKKKRDRDRVENEAEKDLQCHAPVRLDLPPEKPLTSSLAKQEEVEQTPLQEALNQLMRQLQRKDPSAFFSFPVTDFIAPGYSMIIKHPMDFSTMKEKIKNNDYQSIEELKDNFKLMCTNAMIYNKPETIYYKAAKKLLHSGMKILSQERIQSLKQSIDFMADLQKTRKQKDGTDTSQSGEDGGCWQREREDSGDAEAHAFKSPSKENKKKDKDMLEDKFKSNNLEREQEQLDRIVKESGGKLTRRLVNSQCEFERRKPDGTTTLGLLHPVDPIVGEPGYCPVRLGMTTGRLQSGVNTLQGFKEDKRNKVTPVLYLNYGPYSSYAPHYDSTFANISKDDSDLIYSTYGEDSDLPSDFSIHEFLATCQDYPYVMADSLLDVLTKGGHSRTLQEMEMSLPEDEGHTRTLDTAKEMEITEVEPPGRLDSSTQDRLIALKAVTNFGVPVEVFDSEEAEIFQKKLDETTRLLRELQEAQNERLSTRPPPNMICLLGPSYREMHLAEQVTNNLKELAQQVTPGDIVSTYGVRKAMGISIPSPVMENNFVDLTEDTEEPKKTDVAECGPGGS [BRD7]
solubility in G1/S (log2) (HeLa Kyoto [1]): -0.49
melting temperature (HeLa Kyoto [2]; cell cycle stage: G1/S): 46.7 °C
melting temperature (HeLa Kyoto [2]; cell cycle stage: mitosis): 49.1 °C
solubility change mitosis (log2) (HeLa Kyoto [3]): 0.315

PHLPP1
solubility in G1/S (log2) (HeLa Kyoto [1]): 0.00518
melting temperature (HeLa Kyoto [2]; cell cycle stage: G1/S): 51.7 °C
melting temperature (HeLa Kyoto [2]; cell cycle stage: mitosis): 51.2 °C
solubility change mitosis (log2) (HeLa Kyoto [3]): -0.0508

KIAA1217
solubility in G1/S (log2) (HeLa Kyoto [1]): 0.0766
melting temperature (HeLa Kyoto [2]; cell cycle stage: G1/S): 49.8 °C
melting temperature (HeLa Kyoto [2]; cell cycle stage: mitosis): 50.7 °C
solubility change mitosis (log2) (HeLa Kyoto [3]): 0.0131
